US20150125463A1

What was measured:
[1] = target: human PD-L1 (on cells or in tissue) (human) (UniProt Q9NZQ7); assay: IHC histoscore (0-300), FFPE tumor NSCLC sample 1080754B; 5H1 at 5 ug/ml
[2] = target: human PD-L1 (on cells or in tissue) (human) (UniProt Q9NZQ7); assay: IHC histoscore (0-300), FFPE tumor NSCLC sample 1080766B; 5H1 at 5 ug/ml
[3] = target: human PD-L1 (on cells or in tissue) (human) (UniProt Q9NZQ7); assay: IHC histoscore (0-300), FFPE tumor Mel sample T030668; 5H1 at 5 ug/ml
[4] = target: human PD-L1 (on cells or in tissue) (human) (UniProt Q9NZQ7); assay: IHC histoscore (0-300), FFPE tumor NSCLC sample 1080790; 5H1 at 5 ug/ml
[5] = target: human PD-L1 (on cells or in tissue) (human) (UniProt Q9NZQ7); assay: IHC histoscore (0-300), FFPE tumor RCC sample 1164619B; 5H1 at 5 ug/ml
[6] = target: human PD-L1 (on cells or in tissue) (human) (UniProt Q9NZQ7); assay: IHC histoscore (0-300), FFPE tumor RCC sample 1167809B; 5H1 at 5 ug/ml
[7] = target: human PD-L1 (on cells or in tissue) (human) (UniProt Q9NZQ7); assay: IHC histoscore (0-300), FFPE tumor Mel sample 1168657B; 5H1 at 5 ug/ml
[8] = target: human PD-L1 (on cells or in tissue) (human) (UniProt Q9NZQ7); assay: IHC histoscore (0-300), FFPE tumor NSCLC sample 1080993B; 5H1 at 5 ug/ml
[9] = target: human PD-L1 (on cells or in tissue) (human) (UniProt Q9NZQ7); assay: IHC histoscore (0-300), FFPE tumor Mel sample T980744; 5H1 at 5 ug/ml
[10] = target: human PD-L1 (on cells or in tissue) (human) (UniProt Q9NZQ7); assay: IHC histoscore (0-300), FFPE tumor NSCLC sample 1080754B; 28-8 at 2 ug/ml
[11] = target: human PD-L1 (on cells or in tissue) (human) (UniProt Q9NZQ7); assay: IHC histoscore (0-300), FFPE tumor Mel sample 1168657B; 28-8 at 2 ug/ml
[12] = target: human PD-L1 (on cells or in tissue) (human) (UniProt Q9NZQ7); assay: IHC histoscore (0-300), FFPE tumor Mel sample T030668; 28-8 at 2 ug/ml
[13] = target: human PD-L1 (antigen of the surface plasmon resonance analysis) (human) (UniProt Q9NZQ7); assay: surface plasmon resonance; KD given for clone 28-8 alone
[14] = target: human PD-L1 (on cells or in tissue) (human) (UniProt Q9NZQ7); assay: IHC histoscore (0-300), FFPE tumor RCC sample 1167809B; 28-8 at 2 ug/ml
[15] = target: human PD-L1 (on cells or in tissue) (human) (UniProt Q9NZQ7); assay: IHC histoscore (0-300), FFPE tumor RCC sample 1164619B; 28-8 at 2 ug/ml
[16] = target: human PD-L1 (on cells or in tissue) (human) (UniProt Q9NZQ7); assay: IHC histoscore (0-300), FFPE tumor NSCLC sample 1080790; 28-8 at 2 ug/ml
[17] = target: human PD-L1 (on cells or in tissue) (human) (UniProt Q9NZQ7); assay: IHC histoscore (0-300), FFPE tumor Mel sample T980747; 28-8 at 2 ug/ml
[18] = target: human PD-L1 (on cells or in tissue) (human) (UniProt Q9NZQ7); assay: IHC histoscore (0-300), FFPE tumor NSCLC sample 1080766B; 28-8 at 2 ug/ml
[19] = target: human PD-L1 (on cells or in tissue) (human) (UniProt Q9NZQ7); assay: IHC histoscore (0-300), FFPE tumor Mel sample T980744; 28-8 at 2 ug/ml
[20] = target: human PD-L1 (on cells or in tissue) (human) (UniProt Q9NZQ7); assay: IHC histoscore (0-300), FFPE tumor NSCLC sample 1080993B; 28-8 at 2 ug/ml

Chain of human PD-L1 (on cells or in tissue) (human) (Q9NZQ7 19-290): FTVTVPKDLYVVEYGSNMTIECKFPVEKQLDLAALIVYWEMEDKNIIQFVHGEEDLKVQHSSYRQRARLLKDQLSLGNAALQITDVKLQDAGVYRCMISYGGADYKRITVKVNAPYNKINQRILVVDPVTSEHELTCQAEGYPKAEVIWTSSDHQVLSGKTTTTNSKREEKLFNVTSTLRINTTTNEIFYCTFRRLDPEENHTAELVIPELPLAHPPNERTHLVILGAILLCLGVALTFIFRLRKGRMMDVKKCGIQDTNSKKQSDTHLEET
Chain of human PD-L1 (antigen of the surface plasmon resonance analysis) (human) (Q9NZQ7 19-238 limits assumed): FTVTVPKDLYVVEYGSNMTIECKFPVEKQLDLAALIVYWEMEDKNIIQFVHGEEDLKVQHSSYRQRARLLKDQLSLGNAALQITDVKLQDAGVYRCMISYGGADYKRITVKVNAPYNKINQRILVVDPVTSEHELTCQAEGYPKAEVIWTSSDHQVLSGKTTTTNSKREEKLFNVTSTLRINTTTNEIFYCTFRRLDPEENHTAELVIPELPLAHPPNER

Substance: murine anti-human PD-L1 mAb 5H1 (antibody)
- Histoscore Average [1]: 245
- Histoscore Average [2]: 103
- Histoscore Average [3]: 98
- Histoscore Average [4]: 40
- Histoscore Average [5]: 4
- Histoscore Average [6]: 108
- Histoscore Average [7]: 0
- Histoscore Average [8]: 12
- Histoscore Average [9]: 98

Substance: rabbit anti-human PD-L1 mAb 28-8 (antibody)
- Histoscore Average [10]: 261
- Histoscore Average [11]: 0
- Histoscore Average [12]: 113
- Kd [13]: 0.1 nM
- Histoscore Average [14]: 125
- Histoscore Average [15]: 4
- Histoscore Average [16]: 37
- Histoscore Average [17]: 9
- Histoscore Average [18]: 130
- Histoscore Average [19]: 123
- Histoscore Average [20]: 16
